Experimental data: PMC5436050

Molecular target: H1G101C, a mutant of X. laevis linker histone H1°, labeled with Cy5 (Xenopus laevis) (UniProt P22844)

N-terminally His6-tagged yeast Nap1, sequence (P25293 whole entry): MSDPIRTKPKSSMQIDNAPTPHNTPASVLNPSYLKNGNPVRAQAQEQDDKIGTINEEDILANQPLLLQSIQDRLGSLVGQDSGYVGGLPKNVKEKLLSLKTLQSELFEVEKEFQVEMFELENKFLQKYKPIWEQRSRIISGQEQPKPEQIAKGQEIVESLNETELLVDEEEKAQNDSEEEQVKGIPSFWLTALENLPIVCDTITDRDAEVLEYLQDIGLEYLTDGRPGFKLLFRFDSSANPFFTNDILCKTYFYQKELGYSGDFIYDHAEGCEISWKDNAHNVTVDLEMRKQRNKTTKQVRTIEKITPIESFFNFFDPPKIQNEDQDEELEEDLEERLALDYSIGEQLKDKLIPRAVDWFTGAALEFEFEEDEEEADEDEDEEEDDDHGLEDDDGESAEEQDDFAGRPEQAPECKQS

Work on “N-terminally His6-tagged yeast Nap1 (from UniProt P25293 1-417) (natural protein)” yielded a percent of nucleosomes still bound with H1 with 60 nM Nap1 of 17.5%.
